Article PMC4709591

Experiments:
[1] = biological target: human toll-like receptor 5 (TLR5) (human) (UniProt O60602)
[2] = biological target: human toll-like receptor 5 (TLR5) (human) (UniProt O60602); remark: listed apart in the source
[3] = biological target: human toll-like receptor 5 (TLR5) (human) (UniProt O60602); remark: listed apart in the source
[4] = biological target: human toll-like receptor 5 (TLR5) (human) (UniProt O60602); remark: listed apart in the source

Sequence of UniProt O60602 (O60602 21-858): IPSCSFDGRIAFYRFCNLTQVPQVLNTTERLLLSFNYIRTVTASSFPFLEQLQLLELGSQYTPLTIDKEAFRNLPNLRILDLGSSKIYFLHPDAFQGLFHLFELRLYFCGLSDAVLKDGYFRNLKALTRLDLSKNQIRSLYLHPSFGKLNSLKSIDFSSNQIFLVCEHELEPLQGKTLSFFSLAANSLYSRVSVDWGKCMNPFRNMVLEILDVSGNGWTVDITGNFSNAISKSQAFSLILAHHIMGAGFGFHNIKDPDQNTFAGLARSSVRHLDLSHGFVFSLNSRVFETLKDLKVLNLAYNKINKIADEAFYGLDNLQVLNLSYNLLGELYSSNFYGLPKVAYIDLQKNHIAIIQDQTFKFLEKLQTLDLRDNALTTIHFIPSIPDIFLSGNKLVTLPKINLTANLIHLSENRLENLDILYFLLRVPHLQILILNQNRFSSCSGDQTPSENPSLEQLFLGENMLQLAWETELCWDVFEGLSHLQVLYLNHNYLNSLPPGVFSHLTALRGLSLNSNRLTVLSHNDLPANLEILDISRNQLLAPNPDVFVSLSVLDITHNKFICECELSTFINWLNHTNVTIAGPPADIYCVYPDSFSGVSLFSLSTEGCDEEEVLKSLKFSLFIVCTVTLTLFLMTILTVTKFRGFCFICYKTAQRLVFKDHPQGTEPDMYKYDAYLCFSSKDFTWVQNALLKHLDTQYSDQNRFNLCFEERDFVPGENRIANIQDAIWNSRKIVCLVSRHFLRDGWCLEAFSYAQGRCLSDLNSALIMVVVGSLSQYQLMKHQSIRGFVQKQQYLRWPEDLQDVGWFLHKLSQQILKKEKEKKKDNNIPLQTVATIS

## flagellin (FliC) from S. typhimurium SL1344, full-length (from UniProt P06179 1-495) (natural protein)
[1]
  EC50 of bioactivity (SEAP reporter in HEK-Blue-hTLR5 cells): 1.3 pM

## flagellin mutant SS1 (L12-N484 replaced with cysteine) (from UniProt P06179 1-495) (natural protein)
[2]
  EC50 of bioactivity (cell-based TLR5 stimulation assay); decreased against native flagellin: < 10 pM

## flagellin mutant SS2 (Q22-Q473 replaced with cysteine) (from UniProt P06179 1-495) (natural protein)
[2]
  EC50 of bioactivity (cell-based TLR5 stimulation assay); decreased against native flagellin: < 10 pM

## flagellin mutant SS3 (Q22-T477 replaced with cysteine) (from UniProt P06179 1-495) (natural protein)
[2]
  EC50 of bioactivity (cell-based TLR5 stimulation assay); decreased against native flagellin: < 10 pM

## flagellin mutant SS4 (G35-S457 replaced with cysteine) (from UniProt P06179 1-495) (natural protein)
[2]
  EC50 of bioactivity (cell-based TLR5 stimulation assay); decreased against native flagellin: < 10 pM

## flagellin mutant SS5 (L36-D456 replaced with cysteine) (from UniProt P06179 1-495) (natural protein)
[2]
  EC50 of bioactivity (cell-based TLR5 stimulation assay); decreased against native flagellin: < 10 pM

## flagellin mutant SS6 (A51-R451 replaced with cysteine) (from UniProt P06179 1-495) (natural protein)
[2]
  EC50 of bioactivity (cell-based TLR5 stimulation assay); decreased against native flagellin: < 10 pM

## flagellin without the C-terminal D0 domain (S452-R495) (from UniProt P06179 1-451) (domain or fragment)
[1]
  EC50 of bioactivity (SEAP reporter in HEK-Blue-hTLR5 cells): 80 pM

## flagellin-HBc VLP conjugate with 2 flagellins on a VLP (1:40 reactant ratio) (from UniProt P06179 1-495) (complex)
[3]
  bioactivity against free flagellin (SEAP reporter in HEK-Blue-hTLR5 cells): 7 fold
[4]
  potency of TLR5 stimulation, based on flagellin concentration (SEAP reporter in HEK-Blue-hTLR5 cells): 1 pM

## flagellin-HBc VLP conjugate with 10 flagellins on a VLP (1:10 reactant ratio) (from UniProt P06179 1-495) (complex)
[3]
  bioactivity against free flagellin (SEAP reporter in HEK-Blue-hTLR5 cells): 7 fold

## flagellin-HBc VLP conjugate with 33 flagellins on a VLP (1:2 reactant ratio) (from UniProt P06179 1-495) (complex)
[3]
  bioactivity against free flagellin (SEAP reporter in HEK-Blue-hTLR5 cells): 7 fold
[4]
  potency of TLR5 stimulation, based on flagellin concentration (SEAP reporter in HEK-Blue-hTLR5 cells): 1 pM

## soluble SS5 HIII flagellin (L36C-D456C; HPG1+A2I+M310I+M466I) (from UniProt P06179 1-495) (natural protein)
[3]
  minimum flagellin concentration stimulating the TLR5 receptors (SEAP reporter in HEK-Blue-hTLR5 cells): 0.2 pM
